Biological target: the molecule itself
Experiment: crystal structure

B1: Cryptosporidium parvum glyceraldehyde 3-phosphate dehydrogenase, wild type (enzyme)
chain: MTATLGINGFGRIGRLVLRACMERNDITVVAINDPFMDVEYMAYLLKYDSVHGNFNGTVEVSGKDLCINGKVVKVFQAKDPAEIPWGASGAQIVCESTGVFTTEEKASLHLKGGAKKVIISAPPKDNVPMYVMGVNNTEYDPSKFNVISNASCTTNCLAPLAKIINDKFGIVEGLMTTVHSLTANQLTVDGPSKGGKDWRAGRCAGNNIIPASTGAAKAVGKVIPALNGKLTGMAIRVPTPDVSVVDLTCKLAKPASIEEIYQAVKEASNGPMKGIMGYTSDDVVSTDFIGCKYSSIFDKNACIALNDSFVKLISWYDNESGYSNRLVDLAVYVASRGL
notes: glyceraldehyde 3-phosphate dehydrogenase of Cryptosporidium parvum; Homotetramer; Crystallised as apoenzyme and, after incubation with 2 mM NAD, as holoenzyme; also called CpGAPDH; C. parvum GAPDH; source: E. coli, purified (Ni-NTA, SP Sepharose cation exchange, Superdex 200); not shown: His6, N-terminal, kept
  stoichiometry N: 4

B2: Cryptosporidium parvum glyceraldehyde 3-phosphate dehydrogenase, C153S active site mutant (enzyme)
chain: MTATLGINGFGRIGRLVLRACMERNDITVVAINDPFMDVEYMAYLLKYDSVHGNFNGTVEVSGKDLCINGKVVKVFQAKDPAEIPWGASGAQIVCESTGVFTTEEKASLHLKGGAKKVIISAPPKDNVPMYVMGVNNTEYDPSKFNVISNASSTTNCLAPLAKIINDKFGIVEGLMTTVHSLTANQLTVDGPSKGGKDWRAGRCAGNNIIPASTGAAKAVGKVIPALNGKLTGMAIRVPTPDVSVVDLTCKLAKPASIEEIYQAVKEASNGPMKGIMGYTSDDVVSTDFIGCKYSSIFDKNACIALNDSFVKLISWYDNESGYSNRLVDLAVYVASRGL
notes: also called C153S mutant CpGAPDH; C153S CpGAPDH; source: E. coli, purified (Ni-NTA, SP Sepharose cation exchange, Superdex 200); not shown: His6, N-terminal, kept
  stoichiometry N: 4

Reference: article PMC2662861, “An unexpected phosphate binding site in Glyceraldehyde 3-Phosphate Dehydrogenase: Crystal structures of apo, holo and ternary complex of Cryptosporidium parvum enzyme” (BMC Structural Biology, 2009)
